Patent publication US20220160843A1 (priority 2019, published 2022)

Tests used:
[1] = test system: carbapenem-resistant clinical strain, WC-452; assay: Checkerboard assay to examine synergy with antibiotics in CAA/HuS; type: cell-based, P. aeruginosa; details: for FICI, Fosfomycin: lysin + fosfomycin; for FICI, Gentamicin: lysin + gentamicin; for FICI, Imipenem: lysin + imipenem; for FICI, Meropenem: lysin + meropenem; for FICI, Piperacillin: lysin + piperacillin
human erythrocytes = type: cell-based
Experimental: The hemolytic activity of the GN lysins was measured as the amount of hemoglobin released by the lysis of human erythrocytes (30). Briefly, 3 ml of fresh human blood cells (hRBCs) obtained from pooled healthy donors (BioreclamationIVT) in a polycarbonate tube containing heparin was centrifuged at 1,000×g for 5 min at 4° C. The erythrocytes obtained were washed three times with phosphate-buffered saline (PBS) solution (pH 7.2) and resuspended in […]. […] Intact erythrocytes were pelleted by centrifugation at 1,000×g for 5 min at 4° C., and the supernatant was transferred to a new 96-well plate. The release of hemoglobin was monitored by measuring the absorbance at 570 nm.

P. aeruginosa [2] = assay: Time-kill assay of GN lysin activity; type: cell-based, Pseudomonas aeruginosa; details: for bactericidal activity in the time-kill assay format: 3-hour timepoint, 10 μg/mL, in either CAA/HuS or HEPES buffer; for Log10 CFU/mL T = 3 hr / Log10 CFU/mL T = l hr: lysin 10 μg/mL, T = 0 7.8; for Log10 CFU/mL T = 3 hr: buffer control 7.2, limit of detection 3.7; for Log10 CFU/mL T = l hr: buffer control 7.7
Experimental: All treatments were incubated at 37° C. with aeration.

[3] = test system: P. aeruginosa strain ATCC 17647; assay: Minimal Biofilm Eradicating Concentration (MBEC), Calgary Biofilm Device; type: cell-based, Pseudomonas aeruginosa; details: 24 h biofilm, 24 h treatment; minimum concentration removing >95% of biofilm biomass (crystal violet)
Source text: All samples were examined in triplicate.

P. aeruginosa [4] = assay: Minimal inhibitory concentration (MIC), modified CLSI broth microdilution in CAA or CAA/HuS; type: cell-based, Pseudomonas aeruginosa; details: for MIC (μg/mL) in CAA: CAA media; for MIC (μg/mL in CAA/HuS): CAA supplemented with 25% human serum
[5] = test system: carbapenem-resistant P. aeruginosa strains; assay: Resensitization of carbapenem-resistant clinical strains using carbapenems in combination with lysins; type: cell-based
Experimental: The checkerboard assays is based on a modification of the CLSI method for MIC determination by broth microdilution (26, 29). Checkerboards were constructed by first preparing columns of a 96-well polypropylene microtiter plate, in which each well had the same amount of antibiotic diluted 2-fold along the horizontal axis. […] Summation fractional inhibitory concentrations (ΣFICs) were calculated for each drug and the minimum ΣFIC value (ΣFICmin) was used to determine synergy. ΣFICs were calculated as follows: ΣFIC=FIC A+FIC B, where FIC A is the MIC of each antibiotic in the combination/MIC of each antibiotic alone, and FIC B is the MIC of each GN lysin in the combination/MIC of each GN lysin alone. The combination is considered synergistic when the ΣFIC is ≤0.5, strongly additive when the ΣFIC is >0.5 to <1, additive with the ΣFIC is 1−<2, and antagonistic when the ΣFIC is ≥2.
Up to seven carbapenem-resistant isolates were assessed. […] See Clinical and Laboratory Standards Institute (CLSI), CLSI. […] M100 Performance Standards for Antimicrobial Susceptibility Testing; 29th Edition. Clinical and Laboratory Standards Institute, Wayne, Pa.

[6] = CAA/HuS, ‡ indicates bactericidal activity
[7] = HEPES buffer, ‡ indicates bactericidal activity

B1: GN123: Native lysin, GenBank YP_009217242.1, SEQ ID NO: 27 (protein)
chain: MTLLKKGDKGDAVKQLQQKLKDLGYTLGVDGNFGNGTDTVVRSFQTKMKLSVDGVVGNGTMSTIDSTLAGIKAWKTSVPFPATNKSRAMAMPTLTEIGRLTNVDPKLLATFCSIESAFDYTAKPYKPDGTVYSSAEGWFQFLDATWDDEVRKHGKQYSFPVDPGRSLRKDPRANGLMGAEFLKGNAAILRPVLGHEPSDTDLYLAHFMGAGGAKQFLMADQNKLAAELFPGPAKANPNIFYKSGNIARTLAEVYAVLDAKVAKHRA
modifications: Pseudomonas phage PhiPA3
- FICI, Fosfomycin [1]: 0.250
- FICI, Gentamicin [1]: 0.375
- FICI, Imipenem [1]: 0.188
- FICI, Meropenem [1]: 0.125
- FICI, Piperacillin [1]: 0.500
- hemolytic activity (human erythrocytes): no hemolytic activity whatsoever
- bactericidal activity in the time-kill assay format (P. aeruginosa [2]): bactericidal activity
- Log10 CFU/mL T = 3 hr (P. aeruginosa [2]; [6]): <3.7‡ Log10 CFU/mL
- Log10 CFU/mL T = l hr (P. aeruginosa [2]; CAA/HuS): 6.7 Log10 CFU/mL
- Log10 CFU/mL T = 3 hr (P. aeruginosa [2]; [7]): <3.7‡ Log10 CFU/mL
- Log10 CFU/mL T = l hr (P. aeruginosa [2]; [7]): 5.6 Log10 CFU/mL
- MBEC [3]: 4 µg/mL
- MIC (μg/mL) in CAA (P. aeruginosa [4]): 2 µg/mL
- MIC (μg/mL in CAA/HuS) (P. aeruginosa [4]): 128 µg/mL
- GN123 Alone ([5]; isolate PA19, MIC of GN123 alone (imipenem checkerboard)): 8 µg/mL
- GN123 Alone ([5]; isolate PA19, MIC of GN123 alone (meropenem checkerboard)): 8 µg/mL
- GN123 Combination ([5]; isolate PA19, MIC of GN123 in combination with imipenem): 0.125 µg/mL
- GN123 Combination ([5]; isolate PA19, MIC of GN123 in combination with meropenem): 0.25 µg/mL
- FICI ([5]; isolate PA19, imipenem + GN123): 0.03
- FICI ([5]; isolate PA19, meropenem + GN123): 0.046
- GN123 Alone ([5]; isolate PA20, MIC of GN123 alone (imipenem checkerboard)): 16 µg/mL
- GN123 Alone ([5]; isolate PA20, MIC of GN123 alone (meropenem checkerboard)): 16 µg/mL
- GN123 Combination ([5]; isolate PA20, MIC of GN123 in combination with imipenem): 2 µg/mL
- GN123 Combination ([5]; isolate PA20, MIC of GN123 in combination with meropenem): 1 µg/mL
- FICI ([5]; isolate PA20, imipenem + GN123): 0.188
- FICI ([5]; isolate PA20, meropenem + GN123): 0.094
- GN123 Alone ([5]; isolate PA21, MIC of GN123 alone (imipenem checkerboard)): 8 µg/mL
- GN123 Alone ([5]; isolate PA21, MIC of GN123 alone (meropenem checkerboard)): 8 µg/mL
- GN123 Combination ([5]; isolate PA21, MIC of GN123 in combination with imipenem): 1 µg/mL
- GN123 Combination ([5]; isolate PA21, MIC of GN123 in combination with meropenem): 1 µg/mL
- FICI ([5]; isolate PA21, imipenem + GN123): 0.141
- FICI ([5]; isolate PA21, meropenem + GN123): 0.156
- GN123 Alone ([5]; isolate PA22, MIC of GN123 alone (imipenem checkerboard)): 16 µg/mL
- GN123 Alone ([5]; isolate PA22, MIC of GN123 alone (meropenem checkerboard)): 16 µg/mL
- GN123 Combination ([5]; isolate PA22, MIC of GN123 in combination with imipenem): 1 µg/mL
- GN123 Combination ([5]; isolate PA22, MIC of GN123 in combination with meropenem): 1 µg/mL
- FICI ([5]; isolate PA22, imipenem + GN123): 0.188
- FICI ([5]; isolate PA22, meropenem + GN123): 0.125
- GN123 Alone ([5]; isolate PA23, MIC of GN123 alone (imipenem checkerboard)): 8 µg/mL
- GN123 Alone ([5]; isolate PA23, MIC of GN123 alone (meropenem checkerboard)): 8 µg/mL
- GN123 Combination ([5]; isolate PA23, MIC of GN123 in combination with imipenem): 2 µg/mL
- GN123 Combination ([5]; isolate PA23, MIC of GN123 in combination with meropenem): 1 µg/mL
- FICI ([5]; isolate PA23, imipenem + GN123): 0.281
- FICI ([5]; isolate PA23, meropenem + GN123): 0.156
- GN123 Alone ([5]; isolate PA24, MIC of GN123 alone (imipenem checkerboard)): 16 µg/mL
- GN123 Alone ([5]; isolate PA24, MIC of GN123 alone (meropenem checkerboard)): 16 µg/mL
- GN123 Combination ([5]; isolate PA24, MIC of GN123 in combination with imipenem): 2 µg/mL
- GN123 Combination ([5]; isolate PA24, MIC of GN123 in combination with meropenem): 0.5 µg/mL
- FICI ([5]; isolate PA24, imipenem + GN123): 0.188
- FICI ([5]; isolate PA24, meropenem + GN123): 0.094
- GN123 Alone ([5]; isolate WC-452, MIC of GN123 alone (imipenem checkerboard)): 16 µg/mL
- GN123 Alone ([5]; isolate WC-452, MIC of GN123 alone (meropenem checkerboard)): 16 µg/mL
- GN123 Combination ([5]; isolate WC-452, MIC of GN123 in combination with imipenem): 2 µg/mL
- GN123 Combination ([5]; isolate WC-452, MIC of GN123 in combination with meropenem): 1 µg/mL
- FICI ([5]; isolate WC-452, imipenem + GN123): 0.188
- FICI ([5]; isolate WC-452, meropenem + GN123): 0.125
- resensitization of carbapenem-resistant isolates to IPM and MEM ([5]; synergistic combinations with imipenem or meropenem, breakpoints ≤2 sensitive, 4 intermediate, ≥8 resistant): reductions of IPM and MEM MICS to below breakpoint values

B2: GN108: Native lysin, GenBank YP_009288673.1, SEQ ID NO: 26 (protein)
chain: MILTKDGFSIIRNELFEGKLDQTQVDAINFIVEKATEYGLTYPEAAYLLATIYHETGLPSGYRTMQPIKEAGSDSYLRSKKYYPYIGYGYVQLTWEENYERIGKLIGIDLVKNPEKALEPLIAIQIAIKGMLNGWFTGVGFRRKRPVSKYNKQQYVAARNIINGKDKAELIAKYAIIFERALRSL
modifications: Acinetobacter phage phiAB6
- synergy with antibiotics in the checkerboard assay [1]: synergize with a range of antibiotics
- FICI, Amikacin ([1]; lysin + amikacin): 0.156
- FICI, Azithromycin ([1]; lysin + azithromycin): 0.060
- FICI, Aztreonam ([1]; lysin + aztreonam): 0.250
- FICI, Ciprofloxacin ([1]; lysin + ciprofloxacin): 0.281
- FICI, Colistin ([1]; lysin + colistin): 0.133
- FICI, Fosfomycin [1]: 0.188
- FICI, Gentamicin [1]: 0.188
- FICI, Imipenem [1]: 0.039
- FICI, Meropenem [1]: 0.250
- FICI, Piperacillin [1]: 0.531
- FICI, Rifampicin ([1]; lysin + rifampicin): 0.125
- FICI, Tobramycin ([1]; lysin + tobramycin): 0.188
- hemolytic activity (human erythrocytes): no hemolytic activity whatsoever
- bactericidal activity in the time-kill assay format (P. aeruginosa [2]): bactericidal activity
- Log10 CFU/mL T = 3 hr (P. aeruginosa [2]; [6]): <3.7‡ Log10 CFU/mL
- Log10 CFU/mL T = l hr (P. aeruginosa [2]; CAA/HuS): 5.7 Log10 CFU/mL
- Log10 CFU/mL T = 3 hr (P. aeruginosa [2]; [7]): <3.7‡ Log10 CFU/mL
- Log10 CFU/mL T = l hr (P. aeruginosa [2]; [7]): 6.4 Log10 CFU/mL
- MBEC [3]: 0.125 µg/mL
- MIC (μg/mL) in CAA (P. aeruginosa [4]): 8 µg/mL
- MIC (μg/mL in CAA/HuS) (P. aeruginosa [4]): 8 µg/mL
